Earlier results, collected in publication PMC11087511.

How the values were obtained:
[1] = biological target: factor Xa within prothrombinase (Homo sapiens) (UniProt P00742); conditions: cited from earlier work
factor Xa (Homo sapiens) = factor Xa (Homo sapiens) (UniProt P00742); conditions: cited from earlier work
Sequence of factor Xa (Homo sapiens) (P00742 235-488): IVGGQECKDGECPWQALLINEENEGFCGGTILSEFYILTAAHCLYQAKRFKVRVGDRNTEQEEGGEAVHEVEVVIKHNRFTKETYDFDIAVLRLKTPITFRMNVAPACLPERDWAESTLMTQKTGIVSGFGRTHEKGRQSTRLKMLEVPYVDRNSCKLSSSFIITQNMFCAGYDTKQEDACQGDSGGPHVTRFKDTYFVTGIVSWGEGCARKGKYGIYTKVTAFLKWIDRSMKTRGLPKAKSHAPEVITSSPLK

Sequence of Tick anticoagulant peptide (TAP) (P17726 whole entry): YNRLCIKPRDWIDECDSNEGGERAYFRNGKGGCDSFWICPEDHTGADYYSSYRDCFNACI
Sequence of factor Xa within prothrombinase (Homo sapiens) (P00742 41-179, chain 1 of 2): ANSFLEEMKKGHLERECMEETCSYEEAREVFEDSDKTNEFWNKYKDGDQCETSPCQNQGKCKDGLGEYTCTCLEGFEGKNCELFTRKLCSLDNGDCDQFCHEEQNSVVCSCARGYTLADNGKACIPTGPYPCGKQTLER
Sequence of factor Xa within prothrombinase (Homo sapiens) (P00742 235-488, chain 2 of 2): as the sequence (P00742 235-488) above

Q: For “Tick anticoagulant peptide (TAP) (from UniProt P17726)”, which Ki [1] is on record?
A: 0.0053 nM

Q: And the Ki (factor Xa (Homo sapiens))?
A: 0.18 nM
